Paper PMC3754917

Molecular target: transcobalamin saturated with vitamin B12 (holoTC) (human (endogenous in serum)) (UniProt P20062)
Assay: co-IP; serum samples of 6 pregnant women (weeks 15, 25 and 35) exposed to anti-TC coated magnetic beads; sCD320 measured by in-house sandwich ELISA before and after the precipitation

Chain of UniProt P20062 (P20062 19-427): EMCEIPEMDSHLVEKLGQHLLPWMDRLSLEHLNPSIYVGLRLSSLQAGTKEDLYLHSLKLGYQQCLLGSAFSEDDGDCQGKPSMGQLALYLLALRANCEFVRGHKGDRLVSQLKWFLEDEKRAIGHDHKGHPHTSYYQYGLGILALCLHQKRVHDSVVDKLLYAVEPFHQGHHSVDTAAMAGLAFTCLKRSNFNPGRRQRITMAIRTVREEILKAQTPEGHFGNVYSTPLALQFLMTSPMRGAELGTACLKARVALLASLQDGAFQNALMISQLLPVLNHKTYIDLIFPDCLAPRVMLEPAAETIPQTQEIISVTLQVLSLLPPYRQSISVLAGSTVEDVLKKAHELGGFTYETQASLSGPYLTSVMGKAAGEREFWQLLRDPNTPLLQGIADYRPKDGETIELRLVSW

- percent of sCD320 removed by precipitation with antibodies against TC (week 15, median): 36%
- percent of sCD320 removed by precipitation with antibodies against TC (week 25, median): 36%
- percent of sCD320 removed by precipitation with antibodies against TC (week 35, median): 40%
- stoichiometry N: 1
Substance: soluble CD320 (sCD320), soluble receptor for transcobalamin-vitamin B12 (from UniProt Q9NPF0 36-229)
